Data from paper PMC11861921.

Columns and labels:
[1] = target: rat brain synaptosomes (sites that bind 125I-charybdotoxin); experiment: radioligand binding
[2] = target: rat brain synaptosomes (sites that bind 125I-apamin); experiment: radioligand binding; competition with 125I-apamin on rat brain synaptosomes
[3] = target: human Kv1.3 channel (human) (UniProt P22001)
Sequence of UniProt P22001 (P22001 whole entry): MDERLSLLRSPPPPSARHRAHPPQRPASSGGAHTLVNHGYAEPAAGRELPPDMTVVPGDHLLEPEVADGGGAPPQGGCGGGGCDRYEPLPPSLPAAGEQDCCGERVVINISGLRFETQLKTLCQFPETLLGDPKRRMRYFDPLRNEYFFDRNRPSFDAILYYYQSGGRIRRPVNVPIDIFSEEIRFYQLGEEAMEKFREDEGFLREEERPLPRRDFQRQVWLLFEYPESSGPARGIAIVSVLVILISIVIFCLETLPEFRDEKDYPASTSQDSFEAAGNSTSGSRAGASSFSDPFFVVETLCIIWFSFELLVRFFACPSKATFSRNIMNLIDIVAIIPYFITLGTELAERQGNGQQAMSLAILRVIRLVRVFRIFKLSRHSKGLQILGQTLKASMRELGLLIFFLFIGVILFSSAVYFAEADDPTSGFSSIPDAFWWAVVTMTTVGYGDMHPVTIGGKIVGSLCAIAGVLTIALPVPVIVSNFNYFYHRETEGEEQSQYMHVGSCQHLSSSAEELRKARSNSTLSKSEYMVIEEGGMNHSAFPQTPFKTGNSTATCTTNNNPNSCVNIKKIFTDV

Row | Substance | IC50 [1] | IC50 [2] | decrease in Kv1.3 maximum current, patch-clamp (voltage clamp, whole-cell configuration) on HEK293T cells [3]
1 | MTX1 (peptide) | 5 nM | 1.7 nM | 
2 | Tb11a (peptide) |  |  | 50%
